According to US20220169693A1, “Screening Assays, Modulators and Modulation of Intracellular Signalling Mediated by Immunoglobulin Superfamily Cell Adhesion Molecules” (Monash University, priority 2018, published 2022):

How the values were obtained:
[1] = target: T1, cytosolic tail of BCAM, BCAM569-628 (Homo sapiens, UniProt P50895); test: Ang II-induced ICAM-1 expression in ARPE cells transfected with cytosolic tail of BCAM; format: cell-based; set-up: corresponds to residues 569-628 of BCAM plus an initiating Methionine; initiating Methionine (N); expressed in transfected cells; host or cells: human ARPE (adult retinal pigment epithelial) cells; insert in pCIneo; conditions: Ang II 1 μM, treatment with oligopeptide (FIG. 2C)
T1 sequence (P50895 with tags, fused parts or gaps): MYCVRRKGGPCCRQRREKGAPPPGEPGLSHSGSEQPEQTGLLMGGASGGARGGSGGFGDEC
Experimental: (§1) Adult retinal pigment epithelial (ARPE) cells were cultured in Dulbecco's modified Eagle's medium (DMEM)/F12 endothelial cell growth supplement (ECGS) supplemented media. Chinese Hamster Ovary (CHO) cells were cultured using F12 media (10% FCS with 2 mM glutamine). Human microvascular endothelial cells (HMEC) were cultured in MCDB 131 medium (10% FCS with 10 mM glutamine, EGF and hydrocortisone).
(§2) Oligonucleotides were designed and ordered to generate the ALCAM, BCAM and MCAM intracellular (cytosolic) domains. These included a 5′ NheI site, Kozak sequence and initiating Methionine and then DNA sequences corresponding to ALCAM residues 552-583, BCAM residues 569-628 and MCAM residues 584-637 respectively (Note that as residue 551 of ALCAM is Methionine, the cytosolic tail of ALCAM effectively corresponded to residues 551-583). […]
(§3) After 2 hours of exposure to Ang II (1 μM) cells were placed in Trizol, mRNA extracted and cDNA synthesized. Changes in the gene expression of the NFκB subunit, p65 (RelA) or NFκB-activated target genes (e.g ICAM-1) were estimated by quantitative real-time RT-PCR, performed using the TaqMan system based on real-time detection of accumulated fluorescence (ABI Prism 7700, Perkin-Elmer Inc, PE Biosystems, Foster City, Calif., USA). […]

[2] = target: T2, cytosolic tail of ALCAM, ALCAM551-583 (Homo sapiens, UniProt Q13740); test: Ang II-induced ICAM-1 expression in ARPE cells transfected with cytosolic tail of ALCAM; format: cell-based; conditions: Ang II 1 μM
T2 construct: corresponds to residues 551-583 of ALCAM, with initial Methionine already present; expressed in transfected cells; host or cells: human ARPE (adult retinal pigment epithelial) cells; insert in pCIneo
T2 sequence (Q13740 551-583 limits assumed): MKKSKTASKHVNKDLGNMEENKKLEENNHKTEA
Experimental: as §1, §2, §3

[3] = target: T3, full length murine ALCAM1-583 (Mus musculus, UniProt Q61490); test: Ang II-induced p65/PCNA expression in AT1R-CHO cells transfected with full length murine ALCAM (qRT-PCR); format: cell-based; conditions: Ang II 1 μM 2 h, co-transfection of the construct, vs pCIneo (FIG. 3B, 5B)
T3 construct: host or cells: AT1R-CHO (CHO stably transfected with human AT1R-Rluc8), transient transfection; untagged clone in pCMV6
T3 sequence (Q61490 28-583): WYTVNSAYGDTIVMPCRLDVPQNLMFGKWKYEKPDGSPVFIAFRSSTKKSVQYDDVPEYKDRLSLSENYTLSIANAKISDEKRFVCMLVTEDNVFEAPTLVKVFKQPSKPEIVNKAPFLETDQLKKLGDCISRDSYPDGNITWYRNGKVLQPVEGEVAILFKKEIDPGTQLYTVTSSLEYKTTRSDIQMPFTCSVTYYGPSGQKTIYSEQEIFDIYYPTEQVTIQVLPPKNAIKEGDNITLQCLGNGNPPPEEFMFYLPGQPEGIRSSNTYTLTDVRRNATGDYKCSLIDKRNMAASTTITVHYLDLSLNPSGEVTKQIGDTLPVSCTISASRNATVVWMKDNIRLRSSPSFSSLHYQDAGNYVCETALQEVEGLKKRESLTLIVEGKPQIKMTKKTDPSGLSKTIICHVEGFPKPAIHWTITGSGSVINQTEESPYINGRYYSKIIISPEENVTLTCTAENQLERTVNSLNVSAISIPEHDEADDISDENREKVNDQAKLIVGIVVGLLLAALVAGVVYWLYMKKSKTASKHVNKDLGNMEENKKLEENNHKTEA
Experimental: as §1
(§4) 100 ng of AT1R-Rluc8 construct was transfected into CHO cells using Lipofectamine 2000 (Thermo). Stable transfectants were selected using G418. AT1R-CHO were then transiently transfected with the IgSF CAM and/or RAGE constructs using Lipofectamine 2000 (Invitrogen) and incubated for 16h.
Oligonucleotides were designed and ordered to generate the ALCAM, BCAM and MCAM intracellular (cytosolic) domains. These included a 5′ NheI site, Kozak sequence and initiating Methionine and then DNA sequences corresponding to ALCAM residues 552-583, BCAM residues 569-628 and MCAM residues 584-637 respectively (Note that as residue 551 of ALCAM is Methionine, the cytosolic tail of ALCAM effectively corresponded to residues 551-583). The pCIneo parental vector was digested with NheI and NotI restriction enzymes, and the DNA of the fragments of the ALCAM, BCAM and MCAM tails/cytosolic domains were ligated into the digested plasmid. After transformation and recovery, colonies were screened and individual clones sequenced. The sequence of the insert was confirmed by DNA sequencing (Micromon, Monash University). A full-length clone of Mouse ALCAM (BC027280) was purchased from Origene. The untagged clone was supplied in the vector pCMV6. […]
as §3

[4] = target: T4, human ALCAM (ALCAM1-583, cytosolic tail ALCAM551-583) (Homo sapiens, UniProt Q13740); test: Ang II-induced p65/PCNA expression in AT1R-CHO cells transfected with human ALCAM (full length or cytosolic tail); format: cell-based; conditions: Ang II 1 μM, co-transfection (FIG. 3G, 1E)
T4 construct: expressed in transfected cells; host or cells: AT1R-CHO (CHO stably transfected with human AT1R-Rluc8), transient transfection
T4 sequence (Q13740 551-583): T2 sequence (Q13740 551-583 limits assumed)
Experimental: as §1, §4
(§5) Oligonucleotides were designed and ordered to generate the ALCAM, BCAM and MCAM intracellular (cytosolic) domains. These included a 5′ NheI site, Kozak sequence and initiating Methionine and then DNA sequences corresponding to ALCAM residues 552-583, BCAM residues 569-628 and MCAM residues 584-637 respectively (Note that as residue 551 of ALCAM is Methionine, the cytosolic tail of ALCAM effectively corresponded to residues 551-583). The pCIneo parental vector was digested with NheI and NotI restriction enzymes, and the DNA of the fragments of the ALCAM, BCAM and MCAM tails/cytosolic domains were ligated into the digested plasmid. After transformation and recovery, colonies were screened and individual clones sequenced. The sequence of the insert was confirmed by DNA sequencing (Micromon, Monash University). A full-length clone of Mouse ALCAM (BC027280) was purchased from Origene. The untagged clone was supplied in the vector pCMV6. Overlapping DNA sequences were ordered to generate the ALCAM559-580 fragment oligonucleotide. These included a 5′ NheI site, Kozak sequence and initiating Methionine and then DNA sequences corresponding to ALCAM residues 559-580. The pCIneo parental vector was digested with NheI and NotI restriction enzymes, and the ALCAM559-580 construct DNA was ligated into the digested plasmid. After transformation and recovery, colonies were screened and individual clones sequenced.
(§6) After 2 hours of exposure to Ang II (1 μM) cells were placed in Trizol, mRNA extracted and cDNA synthesized. Changes in the gene expression of the NFκB subunit, p65 (RelA) or NFκB-activated target genes (e.g ICAM-1) were estimated by quantitative real-time RT-PCR, performed using the TaqMan system based on real-time detection of accumulated fluorescence (ABI Prism 7700, Perkin-Elmer Inc, PE Biosystems, Foster City, Calif., USA). Gene expression was normalized to 18S mRNA and reported as fold change compared to the level of expression in untreated control mice/cells, which were given an arbitrary value of 1.

AT1R-CHO cells = test: p65 expression in AT1R-CHO cells expressing the truncated construct alone; format: cell-based, Chinese Hamster; conditions: for induction of p65 expression by Ang II when the construct alone is expressed: AT1R-CHO cells, Ang II 1 μM (FIG. 3A, 5A, 5B); for induction of p65 expression following exposure to S100A8/9 when the construct alone is expressed: S100A8/9 1 μM (FIG. 4A)
Experimental: as §1, §4, §5, §6

[5] = target: T3, full length murine ALCAM1-583; test: S100A8/A9-induced PCNA expression in CHO cells transfected with full length murine ALCAM; format: cell-based; conditions: S100A8/A9 1 μM 2 h, co-transfection (FIG. 4A)
Experimental: as §1
as §2, with “551-583). The pCIneo parental vector was digested with NheI and NotI restriction enzymes, and the DNA of the fragments of the ALCAM, BCAM and MCAM tails/cytosolic domains were ligated into the digested plasmid.” for “551-583).”
as §3, with “After 2 hours of exposure to Ang II (1 μM) cells were placed in Trizol, mRNA extracted and cDNA synthesized.” left out

[6] = target: T5, cytosolic tail of MCAM, MCAM584-637 (Homo sapiens, UniProt P43121); test: Ang II-induced ICAM-1 expression in ARPE cells transfected with cytosolic tail of MCAM; format: cell-based; set-up: corresponds to residues 584-637 of MCAM plus an initiating Methionine; initiating Methionine (N); expressed in transfected cells; host or cells: human ARPE (adult retinal pigment epithelial) cells; insert in pCIneo; conditions: Ang II 1 μM, co-transfection (FIG. 2B)
T5 sequence (P43121 with tags, fused parts or gaps): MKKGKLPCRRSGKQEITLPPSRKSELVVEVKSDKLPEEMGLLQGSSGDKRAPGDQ
Experimental: as §1, §2, §3

[7] = target: T6, cytosolic tail of human CADM4, CADM4346-388 (Homo sapiens, UniProt Q8NFZ8); test: Ang II-induced p65 expression in AT1R-CHO cells transfected with cytosolic tail of CADM4; format: cell-based; conditions: Ang II 1 μM, co-transfection (FIG. 3K)
T6 construct: initiating Methionine (N); expressed in transfected cells; host or cells: AT1R-CHO (CHO stably transfected with human AT1R-Rluc8), transient transfection
T6 sequence (Q8NFZ8 with tags, fused parts or gaps): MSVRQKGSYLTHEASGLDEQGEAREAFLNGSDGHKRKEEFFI
Experimental: as §1, §4, §6

[8] = target: T5, cytosolic tail of MCAM, MCAM584-637; test: Ang II-induced p65 expression in AT1R-CHO cells transfected with cytosolic tail of MCAM; format: cell-based; set-up: corresponds to residues 584-637 of MCAM plus an initiating Methionine; initiating Methionine (N); expressed in transfected cells; host or cells: AT1R-CHO (CHO stably transfected with human AT1R-Rluc8); insert in pCIneo; conditions: Ang II 1 μM, co-transfection (FIG. 3I)
Experimental: as §1, §4
(§7) Oligonucleotides were designed and ordered to generate the ALCAM, BCAM and MCAM intracellular (cytosolic) domains. […]
as §3

[9] = target: T7, cytosolic tail of human EpCAM, EpCAM289-314 (Homo sapiens, UniProt P16422); test: Ang II-induced p65 expression in AT1R-CHO cells transfected with cytosolic tail of EpCAM; format: cell-based; conditions: Ang II 1 μM, co-transfection (FIG. 3J)
T7 construct: corresponds to residues 289-314 of EpCAM plus an initiating Methionine; initiating Methionine (N); expressed in transfected cells; host or cells: AT1R-CHO (CHO stably transfected with human AT1R-Rluc8), transient transfection
T7 sequence (P16422 with tags, fused parts or gaps limits assumed): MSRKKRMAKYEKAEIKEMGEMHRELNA
Experimental: as §1, §4, §6

[10] = target: T1, cytosolic tail of BCAM, BCAM569-628; test: Ang II-induced p65 expression in AT1R-CHO cells transfected with cytosolic tail of BCAM; format: cell-based; set-up: corresponds to residues 569-628 of BCAM plus an initiating Methionine; initiating Methionine (N); expressed in transfected cells; host or cells: AT1R-CHO (CHO stably transfected with human AT1R-Rluc8); insert in pCIneo; conditions: Ang II 1 μM, co-transfection (FIG. 3H)
Experimental: as §1, §4, §7, §3

Row | NFKB-dependent induction of ICAM-1 gene expression by Ang II via BCAM569-628 [1] | proinflammatory signalling (ICAM-1) induced by Ang II mediated by the cytosolic tail of ALCAM ([2]; treatment with oligopeptide (FIG. 2C)) | induction of p65-NFκB expression by Ang II via AT1R-dependent transactivation of full length murine ALCAM1-583 [3] | induction of p65-NFκB expression by Ang II via transactivation of the cytosolic tail of human ALCAM, ALCAM551-583 [4] | NFKB-dependent induction of ICAM-1 gene expression by Ang II via ALCAM551-583 ([2]; co-transfection (FIG. 2A)) | ligand-dependent signalling (PCNA expression) via murine ALCAM activated by S100A8/A9 [5] | NFKB-dependent induction of ICAM-1 gene expression by Ang II via MCAM584-637 [6] | induction of p65-NFκB expression by Ang II via transactivation of CADM4346-388 [7] | induction of p65-NFκB expression by Ang II via transactivation of MCAM584-637 [8] | induction of p65-NFκB expression by Ang II via transactivation of EpCAM289-314 [9] | induction of p65-NFκB expression by Ang II via transactivation of BCAM569-628 [10] | Sequence | induction of p65 expression by Ang II when the construct alone is expressed (AT1R-CHO cells) | induction of p65 expression following exposure to S100A8/9 when the construct alone is expressed (AT1R-CHO cells)
1 | inhibited | inhibited | – | – | – | – | – | – | – | – | – | MLWQRRQRRGEERKAPENQEEEEERAELNQAEEPEAGESSTGGP (Synthetic peptide - Truncated amino acid sequence of human RAGE protein corresponding to residues 362 to 404 of human RAGE protein with a mutation of Serine 391 to Alanine plus an initiating methionine residue) [S391A-RAGE362-404, entire cytosolic tail of RAGE with serine391 mutated to alanine] | – | –
2 | – | – | inhibited | inhibited | inhibited | inhibited | inhibited | – | – | – | – | MGEERKAPENQEEEEERAELNQ [RAGE370-390] | no induction of p65 expression is observed | no induction of p65 expression is observed
3 | – | – | – | prevents induction | – | – | – | prevents induction | prevents induction | prevents induction | prevents induction | QEEEEERAELNQ (Synthetic peptide - Truncated amino acid sequence corresponding to residues 379 to 390 of human RAGE protein) [RAGE379-390] | no induction of p65 expression is observed | no induction of p65 expression is observed
